Starred links: 1 amine or outer side, 2 acyl side, 3 side chain; linkers in the order of their positions; H or OH if unused. Positions of bridges follow the written chain, without caps; N, C: chain ends. Non-standard residues stand in square brackets, D forms with d. No end group written: not given here. TATA = O=C(CC[*:1])N1CN(C(=O)CC[*:2])CN(C(=O)CC[*:3])C1; 1Nal = N[C@@H](Cc1cccc2ccccc12)C(=O)O; TBMB = c1c(C[*:1])cc(C[*:3])cc1C[*:2]; hArg = N=C(N)NCCCC[C@H](N)C(=O)O; Tle = CC(C)(C)[C@H](N)C(=O)O; Aib = CC(C)(N)C(=O)O; βAla = NCCC(=O)O; Sar = CNCC(=O)O
Legend:
Human EphA2 (Ecto) [1] = target: T1, Human EphA2 (Ecto) (Human, UniProt P29317 24-537); assay: FP competition, tracer Compound 18
T1 construct: extracellular domain
Procedure: (§1) Peptides without a fluorescent tag were tested in competition with a peptide with a fluorescent tag and a known Kd (Table 2). Peptides were diluted to an appropriate concentration in assay buffer as described in the direct binding assay with a maximum of 5% DMSO, then serially diluted 1 in 2. […] Measurements were conducted as for the direct binding assay, however the gain was determined prior to the first measurement. Data analysis was in Systat Sigmaplot version 12.0 where the mP values were fit to a user defined cubic equation to generate a Ki value: […]
T1 sequence (P29317 24-537): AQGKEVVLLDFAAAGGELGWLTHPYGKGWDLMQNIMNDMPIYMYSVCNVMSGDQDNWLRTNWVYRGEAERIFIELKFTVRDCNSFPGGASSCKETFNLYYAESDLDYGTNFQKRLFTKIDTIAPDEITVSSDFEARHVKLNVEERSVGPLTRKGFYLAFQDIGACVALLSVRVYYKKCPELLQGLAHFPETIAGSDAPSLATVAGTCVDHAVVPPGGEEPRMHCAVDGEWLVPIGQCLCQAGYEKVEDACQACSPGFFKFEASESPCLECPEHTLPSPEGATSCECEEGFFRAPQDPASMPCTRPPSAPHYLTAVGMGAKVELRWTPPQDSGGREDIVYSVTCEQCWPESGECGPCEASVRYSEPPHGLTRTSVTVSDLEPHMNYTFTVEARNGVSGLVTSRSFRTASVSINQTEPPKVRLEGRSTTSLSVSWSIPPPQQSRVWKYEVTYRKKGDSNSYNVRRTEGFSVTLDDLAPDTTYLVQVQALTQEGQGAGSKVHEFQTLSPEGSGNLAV

Human EphA2 (Ecto) [2] = target: T1, Human EphA2 (Ecto); assay: FP competition, tracer Compound 66
Human EphA2 (Ecto) [3] = target: T2, Human EphA2 (Ecto) (Human, UniProt P29317 24-537); assay: FP competition; tracer Reference Compound A
T2 construct: extracellular domain; in-house)
Procedure: as §1
T2 sequence (P29317 24-537): as above

Human EphA2 (Ecto) [4] = target: T2, Human EphA2 (Ecto); assay: FP competition; tracer Reference Compound B
Procedure: as §1

[5] = target: T3, Human EphA2 (Ecto), C-terminal polyHis (Human, UniProt P29317 24-537); assay: fluorescence polarisation, direct binding
T3 construct: extracellular domain; also called EPH receptor A2; ephrin type-A receptor 2
T3 sequence (P29317 24-537): as above
Procedure: Biological Data 1. […] The gain used for analysis was determined for each tracer at the end of the 60 minutes where there was no protein in the well. Data was analysed using Systat Sigmaplot version 12.0. mP values were fit to a user defined quadratic equation to generate a Kd value: f=y min+(y max−y min)/Lig*((x+Lig+Kd)/2−sqrt((((x+Lig+Kd)/2)^2)−(Lig*x))). "Lig" was a defined value of the concentration of tracer used.

Human EphA2 (Ecto) [6] = target: T2, Human EphA2 (Ecto); assay: FP competition; tracer Reference Compound C
Procedure: as §1

Mouse EphA2 (Ecto) = target: T4, Mouse EphA2 (Ecto) (Mouse, UniProt Q03145 26-538); assay: FP competition; tracer Reference Compound C
T4 construct: extracellular domain; C-terminal polyHis; not shown: Fc fusion or C-terminal polyHis
T4 sequence (Q03145 26-538): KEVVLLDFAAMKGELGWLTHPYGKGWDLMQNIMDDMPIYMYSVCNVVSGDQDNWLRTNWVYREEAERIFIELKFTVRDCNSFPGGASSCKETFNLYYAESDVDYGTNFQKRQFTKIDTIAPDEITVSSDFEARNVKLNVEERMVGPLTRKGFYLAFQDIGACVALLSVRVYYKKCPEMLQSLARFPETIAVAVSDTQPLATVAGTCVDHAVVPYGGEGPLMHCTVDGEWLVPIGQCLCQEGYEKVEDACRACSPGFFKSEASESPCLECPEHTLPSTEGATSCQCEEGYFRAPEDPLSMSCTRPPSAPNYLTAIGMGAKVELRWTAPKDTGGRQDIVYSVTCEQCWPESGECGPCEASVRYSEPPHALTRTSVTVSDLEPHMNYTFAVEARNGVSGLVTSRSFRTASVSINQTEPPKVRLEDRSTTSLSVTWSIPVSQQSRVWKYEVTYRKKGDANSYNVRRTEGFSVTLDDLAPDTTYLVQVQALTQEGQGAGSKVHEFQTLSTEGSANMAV
Procedure: as §1

[7] = target: Human EphA2 (Ecto) (Human) (UniProt P29317); assay: FP competition, tracer Compound 18
Chain of Human EphA2 (Ecto) (Human) (P29317 24-537): as the sequence (P29317 24-537) above

[8] = target: Mouse EphA2 (Ecto) (Mouse) (UniProt Q03145); assay: FP competition, tracer Compound 18
Chain of Mouse EphA2 (Ecto) (Mouse) (Q03145 26-538): as the sequence (Q03145 26-538) above

[9] = target: Human EphA2 (Ecto) (Human) (UniProt P29317); assay: FP competition; tracer Reference Compound C
[10] = target: Mouse EphA2 (Ecto) (Mouse) (UniProt Q03145); assay: FP competition; tracer Reference Compound C
[11] = target: T3, Human EphA2 (Ecto), C-terminal polyHis; assay: fluorescence polarisation competition; competitor fluorescent Compound 1
Procedure: as §1

[Sar][Sar]ACPWGPFWCPVNR[dA]GC (linker 4-11-18 via TBMB) [Bicycle Compound 105]
Ki (Human EphA2 (Ecto) [1]): 677 nM
Ki (Human EphA2 (Ecto) [2]): 471 nM

ACQPSNHCAFMNYCA (linker 2-8-14 via TATA) [Bicycle Compound Number 30 (TATA scaffold), ACQPSNHCAFMNYCA]
Ki (Human EphA2 (Ecto) [3]): 137 nM
Ki (Human EphA2 (Ecto) [4]): 187 nM

B1: Bicycle Compound Number 14 (TBMB scaffold) (peptide)
peptide: GXXXXXXXXXXACPWGPAWCPVNRPGCA
modifications: N-terminal AF488 (AlexaFluor488); Sar10; 3 Cys thioether-linked to TBMB scaffold
Kd [5]: 38 nM

ACPLVNPLCLHPGWSCRGQ (linker 2-9-16 via TATA) [Bicycle Compound Number 87 (BCY6026) (TATA scaffold), ACPLVNPLCLHPGWSCRGQ]
Ki (Human EphA2 (Ecto) [6]): 2.57 nM
Ki (Mouse EphA2 (Ecto)): 18.6 nM

Ac-[Sar][Sar]H[dD]VPCP[1Nal]G[Aib]F[1Nal]CP[Tle]N[hArg]P[dD]C (linker 7-14-21 via TBMB) [Bicycle Compound 254]
Ki [7]: 0.74 nM
Ki [8]: 0.64 nM

B2: Bicycle Compound Number 92 (TATA scaffold), Ac-CPLVNPLCLHPGWSC(HArg)GQ-Sar6-(D-K) (peptide)
peptide: CPLVNPLCLHPGWSCXGQXXXXXXK
modifications: N-terminal acetyl; X16 = HArg (homoarginine); X at 19-24 = Sar; K25 = D-Lys; 3 Cys thioether-linked to TATA scaffold
Ki (Human EphA2 (Ecto) [6]): 10.6 nM
Ki (Mouse EphA2 (Ecto)): 75.3 nM

ACTSCWAYPDSFCA (linker 2-5-13 via TATA) [Bicycle Compound Number 32 (TATA scaffold), ACTSCWAYPDSFCA]
Ki (Human EphA2 (Ecto) [3]): 151 nM
Ki (Human EphA2 (Ecto) [6]): 232 nM

[βAla][Sar][Sar][Sar][Sar][Sar][Sar][Sar][Sar][Sar][Sar]A[hArg]DCPLVNPLCLHPGWTC (linker 15-22-29 via TATA) [Bicycle Compound Number 67 (BCY6014) (TATA scaffold), (β-Ala)-Sar10-A(HArg)…]
Ki [9]: 8.51 nM
Ki [10]: 61.7 nM

B3: Bicycle Compound Number 91 (BCY6042) (TATA scaffold), Ac-CPLVNPLCLHPGWSCRGQ-Sar6-(D-K) (peptide)
peptide: CPLVNPLCLHPGWSCRGQXXXXXXK
modifications: N-terminal acetyl; X at 19-24 = Sar; K25 = D-Lys; 3 Cys thioether-linked to TATA scaffold
Ki (Human EphA2 (Ecto) [6]): 5.98 nM
Ki (Mouse EphA2 (Ecto)): 49.9 nM

B4: Bicycle Compound Number 77 (BCY6019) (TATA scaffold), Ac-CPLVNPLCLHPGWTCLHG-Sar6-(D-K) (peptide)
peptide: CPLVNPLCLHPGWTCLHGXXXXXXK
modifications: N-terminal acetyl; X at 19-24 = Sar; K25 = D-Lys; 3 Cys thioether-linked to TATA scaffold
Ki (Human EphA2 (Ecto) [6]): 5.41 nM
Ki (Mouse EphA2 (Ecto)): 48.2 nM

ACYVGKECAYMNVCA (linker 2-8-14 via TATA) [Bicycle Compound Number 29 (TATA scaffold), ACYVGKECAYMNVCA]
Ki (Human EphA2 (Ecto) [3]): 87.7 nM
Ki (Human EphA2 (Ecto) [4]): 107 nM
Ki (Human EphA2 (Ecto) [6]): 210 nM

B5: Bicycle Compound Number 78 (TATA scaffold), Ac-CPLVNPLCLHPGWTCL(D-His)G-Sar6-(D-K) (peptide)
peptide: CPLVNPLCLHPGWTCLHGXXXXXXK
modifications: N-terminal acetyl; H17 = D-His; X at 19-24 = Sar; K25 = D-Lys; 3 Cys thioether-linked to TATA scaffold
Ki (Human EphA2 (Ecto) [6]): 15.6 nM
Ki (Mouse EphA2 (Ecto)): 115 nM

XXXXXXXXXXXARDCPLVNPLCLHPGWTC (N-terminal (β-Ala)-Sar10; 3 Cys thioether-linked to TATA scaffold) [Bicycle Compound Number 66 (BCY6099) (TATA scaffold), (β-Ala)-Sar10-ARDCPLVNPLCLHPGWTC]
Ki (Human EphA2 (Ecto) [6]): 4.94 nM
Ki (Mouse EphA2 (Ecto)): 57.6 nM

ACRNIPTMCPFGPVWCA (linker 2-9-16 via TBMB, also called Compound 32) [Bicycle Compound Number 32 (TBMB scaffold)]
Ki [11]: 83.4 nM

B6: Bicycle Compound Number 68 (TATA scaffold), Ac-ARDCPLVNPLCLHPGWTCA-Sar6-(D-K) (peptide)
peptide: ARDCPLVNPLCLHPGWTCAXXXXXXK
modifications: N-terminal acetyl; X at 20-25 = Sar (sarcosine); K26 = D-Lys; 3 Cys thioether-linked to TATA scaffold
Ki (Human EphA2 (Ecto) [6]): 19.3 nM
Ki (Mouse EphA2 (Ecto)): 166 nM

— patent US11814447B2, “Peptide ligands for binding to EphA2” (BICYCLERD LIMITED, priority 2018, dated 2023)
